{"source": "patent US20260258113A1", "about": "“BETA GLOBIN MIMETIC PEPTIDES AND THEIR USE” (THE UNITED STATES OF AMERICA, AS REPRESENTED BY THE …, priority 2022, published 2026)", "target": "endothelial nitric oxide synthase (eNOS), endogenous, in human resistance arteries (human) (UniProt P29474)", "sequence (P29474 2-1203 limits assumed)": "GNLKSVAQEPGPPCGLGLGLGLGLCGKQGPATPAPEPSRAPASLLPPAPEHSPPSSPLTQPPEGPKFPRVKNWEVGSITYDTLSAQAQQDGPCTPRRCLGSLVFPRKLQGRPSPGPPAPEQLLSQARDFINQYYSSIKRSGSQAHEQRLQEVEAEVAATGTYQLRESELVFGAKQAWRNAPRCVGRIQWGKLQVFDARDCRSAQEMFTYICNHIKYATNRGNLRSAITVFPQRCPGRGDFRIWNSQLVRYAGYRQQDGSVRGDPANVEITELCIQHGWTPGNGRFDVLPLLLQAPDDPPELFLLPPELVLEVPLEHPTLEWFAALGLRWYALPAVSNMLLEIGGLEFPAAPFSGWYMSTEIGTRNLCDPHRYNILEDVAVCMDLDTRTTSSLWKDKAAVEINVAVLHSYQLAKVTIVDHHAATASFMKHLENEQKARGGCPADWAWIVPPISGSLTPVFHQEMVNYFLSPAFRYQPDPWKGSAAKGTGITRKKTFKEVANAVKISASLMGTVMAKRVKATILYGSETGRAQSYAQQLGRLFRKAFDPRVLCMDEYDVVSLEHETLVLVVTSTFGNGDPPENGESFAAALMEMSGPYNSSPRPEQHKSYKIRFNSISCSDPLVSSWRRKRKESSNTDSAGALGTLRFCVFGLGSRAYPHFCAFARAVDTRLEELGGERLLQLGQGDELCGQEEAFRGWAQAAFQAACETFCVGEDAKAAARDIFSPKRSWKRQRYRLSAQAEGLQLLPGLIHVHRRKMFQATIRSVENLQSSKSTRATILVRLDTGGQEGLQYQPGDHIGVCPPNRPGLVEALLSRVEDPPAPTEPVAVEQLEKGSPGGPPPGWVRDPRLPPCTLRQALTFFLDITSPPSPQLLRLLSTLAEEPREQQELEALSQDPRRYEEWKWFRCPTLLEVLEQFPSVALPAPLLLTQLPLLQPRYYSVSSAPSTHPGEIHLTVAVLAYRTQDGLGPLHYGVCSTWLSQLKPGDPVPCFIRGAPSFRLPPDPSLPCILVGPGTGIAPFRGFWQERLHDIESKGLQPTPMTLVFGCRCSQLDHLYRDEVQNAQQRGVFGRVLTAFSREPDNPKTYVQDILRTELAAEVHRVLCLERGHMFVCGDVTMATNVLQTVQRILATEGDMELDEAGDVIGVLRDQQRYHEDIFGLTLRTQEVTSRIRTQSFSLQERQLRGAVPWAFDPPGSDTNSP", "test": "cell-based or functional assay"}
{"substance": "alpha globin mimetic peptide HbαX with N-terminal HIV-tat tag", "values": [{"measurement": "Bottom (4-PL minimum of phenylephrine-induced constriction, % of baseline diameter), PE + Mimetic + LNAME, human omental arteries, pressure myography (% of baseline diameter)", "result": 41.9}, {"measurement": "Bottom (4-PL minimum of phenylephrine-induced constriction, % of baseline diameter), PE + Mimetic, human omental arteries, pressure myography, peptide 5 µmol/L (% of baseline diameter)", "result": 64.6}]}
